Data taken from PMC6987093, “Polymerase independent repression of FoxO1 transcription by sequence-specific PARP1 binding to FoxO1 promoter”.

B1: FoxO1-R-B-biotin (dsDNA)
DNA 1: AATGATACGGCGACCACCGAGGATCCTCTTGTGGTCTCTTCACGTTTACGAATTCTCGTATGCCGTCTTCTGCTTG
DNA 2: CAAGCAGAAGACGGCATACGAGAATTCGTAAACGTGAAGAGACCACAAGAGGATCCTCGGTGGTCGCCGTATCATT
B2: FoxO1-R-B (free competitor) (dsDNA)
DNA 1: B1 DNA 1
DNA 2: B1 DNA 2
B3: FoxO1-L-B-biotin (dsDNA)
DNA 1: AATGATACGGCGACCACCGAGGATCCTCACTGTATTCTTGAATTCTCGTATGCCGTCTTCGCTTG
DNA 2: CAAGCGAAGACGGCATACGAGAATTCAAGAATACAGTGAGGATCCTCGGTGGTCGCCGTATCATT

Legend:
PARP1 [1] = biological target: T1, PARP1 (UniProt P09874 1-1014); assay: pull-down (FREP); EcoRI and BamHI release; EMSA: 0, 2, 5 or 10 ug PARP1 pre-incubated 30 min with 50 ng DNA probe (Thermo EMSA kit), nondenaturing PAGE; buffer, salt, pH and temperature not given in the; conditions: label: 5' biotin
PARP1 [2] = biological target: T1, PARP1; assay: competition; 40-fold excess over FoxO1-R-B-biotin in FREP; EMSA: 0, 2, 5 or 10 ug PARP1 pre-incubated 30 min with 50 ng DNA probe (Thermo EMSA kit), nondenaturing PAGE; buffer, salt, pH and temperature not given in the

T1 sequence (P09874 whole entry): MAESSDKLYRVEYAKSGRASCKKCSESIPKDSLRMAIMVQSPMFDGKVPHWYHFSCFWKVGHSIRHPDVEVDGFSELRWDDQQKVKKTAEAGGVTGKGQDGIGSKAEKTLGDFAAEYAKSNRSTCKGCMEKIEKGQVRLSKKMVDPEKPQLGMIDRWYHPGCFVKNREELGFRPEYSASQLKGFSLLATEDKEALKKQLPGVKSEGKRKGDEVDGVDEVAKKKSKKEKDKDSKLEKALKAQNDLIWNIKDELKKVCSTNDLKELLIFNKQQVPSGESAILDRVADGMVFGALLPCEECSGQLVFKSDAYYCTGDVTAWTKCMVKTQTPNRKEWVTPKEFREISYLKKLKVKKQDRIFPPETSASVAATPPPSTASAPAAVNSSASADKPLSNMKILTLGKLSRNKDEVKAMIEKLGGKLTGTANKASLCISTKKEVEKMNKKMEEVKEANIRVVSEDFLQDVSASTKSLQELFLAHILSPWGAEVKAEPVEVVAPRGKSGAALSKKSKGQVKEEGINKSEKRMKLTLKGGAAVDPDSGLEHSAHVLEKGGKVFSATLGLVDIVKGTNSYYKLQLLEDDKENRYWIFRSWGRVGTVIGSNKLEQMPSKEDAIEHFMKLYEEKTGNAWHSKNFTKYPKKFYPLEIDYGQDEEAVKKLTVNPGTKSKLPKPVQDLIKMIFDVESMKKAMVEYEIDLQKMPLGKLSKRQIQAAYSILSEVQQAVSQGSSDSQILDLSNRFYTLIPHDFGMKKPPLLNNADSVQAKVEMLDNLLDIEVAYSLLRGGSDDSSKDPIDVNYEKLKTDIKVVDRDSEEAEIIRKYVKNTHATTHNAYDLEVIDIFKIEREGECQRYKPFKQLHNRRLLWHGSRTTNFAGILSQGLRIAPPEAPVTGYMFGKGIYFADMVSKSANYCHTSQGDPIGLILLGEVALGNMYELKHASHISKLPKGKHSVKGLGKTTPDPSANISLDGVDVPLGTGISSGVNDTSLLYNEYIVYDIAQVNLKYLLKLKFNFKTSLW

Binder	binding result (PARP1 [1])	binding result (PARP1 [2])
B1	binds	
B2		binds
B3	binds	
